Residue numbers refer to the chain shown, from its start. Numbers in names are those of the source. Each block holds one binder with its values, some of them ahead of it.
Key:
[1] = biological target: T1, canine IL-31RA (20-308)-AviTag-His Tag, monomeric (canine); experiment: SPR Biacore T200, antibody captured on anti-dog H+L chip, monomeric canine IL-31RA (20-308) as analyte
T1 construct: Signal peptide (first 19 residues) left out; also called monomeric IL-31RA
T1 chain: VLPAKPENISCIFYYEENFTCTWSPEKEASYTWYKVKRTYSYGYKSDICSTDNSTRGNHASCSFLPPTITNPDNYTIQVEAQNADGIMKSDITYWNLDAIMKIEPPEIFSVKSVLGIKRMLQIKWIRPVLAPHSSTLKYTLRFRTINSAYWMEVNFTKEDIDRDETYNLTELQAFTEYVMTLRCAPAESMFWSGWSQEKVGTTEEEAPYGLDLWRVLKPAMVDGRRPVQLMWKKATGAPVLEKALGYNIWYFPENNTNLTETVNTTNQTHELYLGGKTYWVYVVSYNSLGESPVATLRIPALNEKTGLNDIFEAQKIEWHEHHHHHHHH
Protocol: (§1) The antibody was captured using a CM5 Series S chip amine coupled with an anti-dog H+L antibody (Jackson Immunoresearch). Canine IL-31RA-mFc (100 nM, 50 nM, 25 nM, 12.5 nM, 6.25 nM, 3.625 nM) solutions in 1×HBS-EP+ was flown over the sensor chip for a contact time of 120 s and a dissociation time of 600 s at a flow rate of […]. Double reference-subtracted sensorgrams were fitted to a 1:1 binding model using Biacore T200 Evaluation software. The canine IL-31RA antigen was both a dimer and aggregated so there were avidity effects with the measured affinities. […] Following the initial results with the single variants, a heavy chain containing the W53F variant and the M118I variant was synthesized and subcloned into pcDNA 3.4 (SEQ ID NO:18). The same methods as described above for expression and purification of the variant along with measuring the relative affinity were used to determine the relative affinity of the W53F/M118I heavy chain variant combined with the S95A light chain and the N94Q light chain variants.
To reduce the avidity effects from using the canine IL-31RA-mouse Fc construct in SPR experiments, a monomeric construct was generated which contains amino acids 20-308 of the canine IL-31IRA extracellular domain (SEQ ID NO:28). This construct has the AviTag sequence ([…] (SEQ ID NO:51)) followed by an 8×His(SEQ ID NO:52) tag to facilitate purification. GenScript HD (High Density) CHO-S cells were transiently transfected with pcDNA 3.4 containing Sequence 28 and purified with HisTrap FF chromatography. Further purification of the recombinant protein was completed using gel filtration with Cytiva HiLoad 26/600 Superdex chromatography to isolate the monomeric IL-31RA species. […] These clones were evaluated in an SPR experiment using the same conditions as described for the caninized clones except the analyte is canine IL-31RA (20-308).

[2] = biological target: T2, extracellular domain of canine IL-31RA fused to murine IgG2A Fc (canine); experiment: SPR Biacore T200, antibody captured on anti-dog H+L chip, canine IL-31RA-mFc as analyte; relative affinity scale: *** 3 pM-100 pM, ** 101 pM-1 nM, * 1.1 nM-20 nM (avidity)
T2 construct: also called Canine IL-31RA-murine IgG2A Fc; Canine IL-31RA-mFc
T2 chain: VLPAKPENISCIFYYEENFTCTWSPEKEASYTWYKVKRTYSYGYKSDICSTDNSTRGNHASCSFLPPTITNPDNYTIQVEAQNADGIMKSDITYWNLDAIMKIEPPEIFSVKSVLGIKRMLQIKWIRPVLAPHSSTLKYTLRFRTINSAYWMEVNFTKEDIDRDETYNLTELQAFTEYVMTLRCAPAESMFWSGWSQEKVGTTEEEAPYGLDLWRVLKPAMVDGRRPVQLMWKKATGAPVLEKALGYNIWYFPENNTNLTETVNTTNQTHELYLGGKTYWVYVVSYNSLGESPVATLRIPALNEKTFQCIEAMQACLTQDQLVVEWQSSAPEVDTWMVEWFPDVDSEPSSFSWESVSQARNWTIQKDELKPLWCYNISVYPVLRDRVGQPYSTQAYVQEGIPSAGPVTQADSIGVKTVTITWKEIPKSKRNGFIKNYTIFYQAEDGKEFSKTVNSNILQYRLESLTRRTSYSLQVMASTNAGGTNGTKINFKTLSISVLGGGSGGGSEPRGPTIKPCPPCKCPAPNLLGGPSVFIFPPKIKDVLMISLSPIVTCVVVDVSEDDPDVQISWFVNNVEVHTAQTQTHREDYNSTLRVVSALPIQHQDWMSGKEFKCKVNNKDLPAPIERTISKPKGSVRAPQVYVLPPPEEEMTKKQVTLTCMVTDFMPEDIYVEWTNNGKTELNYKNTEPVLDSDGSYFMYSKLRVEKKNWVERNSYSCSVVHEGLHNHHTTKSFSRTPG
Protocol: as §1, with “The different heavy and light chain combinations were co-transfected into ExpiCHO cells using the ExpiCHO transfection kit (ThermoFisher; Cat. #A29133). Seven days following the transient transfection, the IgG in the conditioned medium was purified using MabSelect SuRe chromatography. The antibodies were buffer-exchanged into PBS, pH 7.4. The relative affinity of the variants was determined by SPR on a Biacore T200. The antibody” for “The antibody”

[3] = biological target: T2, extracellular domain of canine IL-31RA …; experiment: as above
Protocol: as §1, with “Seven days following the transient transfection, the IgG in the conditioned medium was purified using MabSelect SuRe chromatography. The antibodies were buffer-exchanged into PBS, pH 7.4. The relative affinity of the variants was determined by SPR on a Biacore T200. The antibody” for “The antibody”

[4] = biological target: canine IL-31 receptor alpha (IL-31RA) on canine DH-82 cells (canine); experiment: cell-based or functional assay
[5] = biological target: T2, extracellular domain of canine IL-31RA …; experiment: SPR Biacore T200, antibody captured on anti-human IgG chip, canine IL-31RA-mFc as analyte, 1:1 model
Protocol: Canine IL-31RA-murine IgG2A Fc was generated by transiently transfecting pcDNA3.4 containing Sequence 3 into GenScript HD (High Density) CHO-S cells and purified with MabSelect SuRe LX chromatography. Further purification of the recombinant protein was completed using gel filtration with TSKgel G3000SWxi chromatography. […] Antibodies were flowed over the anti-human IgG sensor chip at a concentration of 1 μg/ml in 1×HBS-EP+ (Cytiva, BR100826) for 60 seconds at a flow rate of 10 μL/min. Canine IL-31RA-mFc (100 nM, 50 nM, 25 nM, 12.5 nM, 6.25 nM, […]) solutions in 1×HBS-EP+ was flown over the sensor chips for a contact time of 120 s and a dissociation time of 600 s at a flow rate of 30 μL/min. Double reference-subtracted sensorgrams were fitted to a 1:1 binding model using Biacore T200 Evaluation software and the kinetics of binding are shown below in Table 4.

B1: 109-49_IA (109-49 containing the M118I and S95A variants) (antibody, V domains shown)
VH: EVQLVESGGDLVKPGGSLRLSCVASGFTFDDYGMSWVRQAPGKGLQWVSGINWAGGTIGYADAVKGRFTISRDNARNTVYLQMNSLRAEDTAVYYCARESPLRLGDLGGDYFYYYYYIDVWGQGTLVTVSS
VL: EVVMIQTPLSLSVSPGEPASISCRASQSVSSRYLVWYLQKPGQSPQLLIYGTSSRATGVSDRFSGSGSGTDFTLRISRVEAEDVGVYYCQQYDNAPRTFGQGTKVEIKR
notes: Canine IgGB/kappa; signal peptides left out; also called M118I / S95A
Kd [1]: 1.31 nM
koff [1]: 7.09e-05 s⁻¹
kon [1]: 54400 M⁻¹ s⁻¹
relative affinity (apparent KD by SPR) [2]: 0.003 to 0.1 nM

B2: 186-95 heavy chain S57A variant with wild-type light chain (antibody, V domains shown)
VH: EVQLVESGGDLVKPGGSLRLSCVASGFTFSSYAMSWVRQAPGKGLQWVSAISGSGNATYYADAVKGRFTISRDNAKNTLYLQMNSLRAEDTAVYYCATQVVYYFKMDVWGQGTLVTVSS
VL: EIVMTQSPGSLAGSAGESVSINCKSSQSVSSNLAWYQQKPGERPKLLIYGASTRASGVPARFSSSGSGTDFTLTINNLQAEDVGDYYCQQYYNWPPFTFGQGTKLEIKR
notes: Canine IgGB/kappa; signal peptides left out; also called S57A / Wild-type
binding result [3]: binds

B3: 186-95_QLF (186-95 containing the N56Q, M106L, and W94F variants) (antibody, V domains shown)
VH: B2 VH with N56Q, A57S, M106L
VL: B2 VL with W94F
notes: Canine IgGB/kappa; signal peptides left out; also called N56Q-M106L / W94F
Kd [1]: 2.31 nM
koff [1]: 0.000161 s⁻¹
kon [1]: 69800 M⁻¹ s⁻¹
binding result [3]: binds

B7: Clone 109 (human antibody 109, human IgG1) (antibody, V domains shown)
VH: EVQLVESGGGVVRPGGSLRLSCAASGFTFDDYGMSWVRQIPGRGLEWVSGINWAGGTIGYADSVKGRFTVSRDDANNSLYLQMNSLRAEDTALYLCARESPLRLGDLGGDYFYYYYYMDVWGKGTTVTVSS
VL: EIVLTQSPGTLSLSPGERATLSCRASQSVSSRYLVWYQQKPGQAPRLLIYGTSSRATGIPDRFSGSGSGTDFTLTISRLEPEDFAVYYCQQYDNSPRTFGQGTKVEIKR
IC50 (read off the curve) [4]: ~4 nM
Kd [5]: 0.506 nM
koff [5]: 0.000108 s⁻¹
kon [5]: 214000 M⁻¹ s⁻¹

B8: Clone 186 (human antibody 186, human IgG1) (antibody, V domains shown)
VH: EVQLLESGGGLIQPGGSLRLSCGASGFTFSSYAMSWVRQAPGKGLEWVSAISGSGNSTYYADSVKGRFTISRDNSKNTLYLQMNSLRAEDTAVYYCATQVVYYFKMDVWGKGTTVTVSS
VL: EIVMTQSPATLSVSPGERATLSCRASQSVSSNLAWYRQKPGQAPRLLIYGASTRATGIPARFSGSGSGTEFTLTISSLQSEDFAVYYCQQYYNWPPFTFGPGTKLDIKR
IC50 (read off the curve) [4]: ~10 nM
Kd [5]: 1.81 nM
koff [5]: 0.000118 s⁻¹
kon [5]: 65200 M⁻¹ s⁻¹

Further lines, results first:

binding result [3]: binds
B4: 186-95 wild-type heavy chain with light chain W94Y variant (antibody, V domains shown)
VH: B2 VH with A57S
VL: B2 VL with W94Y
notes: Canine IgGB/kappa; signal peptides left out; also called Wild-type / W94Y

binding result [3]: binds
B5: 186-95 wild-type heavy chain with light chain W94F variant (antibody, V domains shown)
VH: B2 VH with A57S
VL: B2 VL with W94F
notes: Canine IgGB/kappa; signal peptides left out; also called Wild-type / W94F

binding result [3]: binds
B6: caninized antibody clone 186-95 (antibody, V domains shown)
VH: B2 VH with A57S
VL: B2 VL
notes: Canine IgGB and canine kappa constant domains

Source: US20250257142A1 (INVETX, published 2025)
